Data reported in the supplement of paper PMC10567573.

B1: HESX1 (parent)
chain: SKYENYFSASERLSLKRELSWYRG
B2: TRIM63 (parent)
chain: FRCPTCRHEVIMDRHGVYGLQRNL

Variants of: B1
Assay: protein stability index of a GFP-peptide fusion (GPS, HEK-293T) (PSI 1-6); higher = more stable
Settings: c terminus: a fixed tail appended
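Note: lentivirally expressed fusions sorted by FACS into six bins by GFP to DsRed ratio, PSI derived from sequencing read proportions per bin multiplied by bin number.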

Protein stability index of substitutions, site by site:
E18: S 1.38 | D 1.82 | N 2.06 | C 1.43 | R 2.5 | Q 1.52 | K 1.99 | G 1.87 | I 1.75 | P 2.07 | H 1.77
L13: V 2.72 | M 1.63 | S 2.07 | F 1.65 | K 1.9 | P 2.35 | Y 1.93 | D 3.44 | E 2.3 | N 2.31 | G 1.93
Y3: C 1.79 | Q 1.61 | K 3.46 | R 2.13 | P 1.66 | D 2.29 | V 3.67 | I 2.26 | L 1.97 | N 1.72 | F 1.48 | G 2.75 | S 2.97 | M 1.59
K2: S 1.82 | V 1.77 | C 2.23 | G 2.31 | Q 2.65 | E 2.05 | H 1.8 | A 2.09 | L 1.25 | T 2.34 | M 1.7 | Y 1.81 | R 1.64 | P 1.96 | D 2.19 | I 1.45 | F 1.57
K16: A 2.32 | F 1.37 | P 3.04 | V 2.16 | L 2.21 | S 1.9 | N 2.17 | H 1.78 | I 1.8 | T 1.95 | Y 1.94 | R 1.42
R17: L 1.38 | W 1.21 | K 2.27 | V 3.72 | H 2.1 | M 2.72 | Q 2.29 | G 1.78 | S 1.56 | C 1.61 | T 1.9 | E 1.91 | D 2.21 | N 1.76 | A 2.04 | Y 2.66
S10: Y 1.67 | P 1.95 | N 2.13 | G 1.56 | Q 2.28 | E 3.04 | W 2.31 | H 2.38 | K 2.72 | C 2.34 | D 2.19 | T 2.77 | A 2.07 | R 2.3 | F 1.07 | M 1.86
S8: M 1.61 | K 1.62 | V 1.56 | H 2.01 | I 1.94 | C 2.03 | Q 2.26 | F 2.35 | L 1.55 | R 1.44 | E 1.67 | D 3.25 | A 1.94 | N 1.68
W21: A 4.19 | M 2.31 | Q 2.63 | V 2.2 | D 3.19 | H 1.73 | F 2.29 | C 2.2 | I 3.04 | G 1.48 | Y 2.4 | T 2.46 | N 2.27 | P 2.39 | S 2.65 | K 1.75
S20: Y 2.75 | V 1.24 | R 2.14 | T 3.72 | W 2.91 | K 1.58 | F 1.66 | P 1.31 | I 2.8 | L 2.8 | M 1.14 | Q 1.94
E4: N 1.71 | R 2.54 | D 2.45 | Y 2.33 | Q 1.56 | H 1.17 | T 2.98 | S 1.27 | L 2.23 | A 1.61 | G 2.13 | C 2.24 | V 2.1 | P 2.06 | M 2.02 | I 1.26
S1: A 1.71 | E 1.76 | H 2.34 | C 2.04 | G 1.9 | N 1.74 | I 1.61 | Y 2.77 | L 2.06 | M 1.36 | K 1.4
F7: I 1.98 | V 3.05 | L 2.64 | M 2.12 | W 1.3 | T 3.02 | G 1.42 | S 2.83 | E 1.96 | H 2.72 | D 2.39 | K 1.77 | Y 2.63
S14: H 1.99 | F 1.73 | Q 2.36 | I 1.27 | M 1.74 | C 2.07 | D 3.59 | E 2.14 | R 2.03 | Y 1.92 | W 2.21 | P 2.96 | G 1.33 | N 2.25 | L 1.02
A9: E 3.38 | P 1.4 | D 2.73 | T 2.18 | V 1.41 | I 1.44 | L 1.58 | R 1.99 | Q 2.01 | S 1.82 | W 1.52 | M 2.15 | N 2.86 | C 2.45 | K 2.01 | Y 2.08 | F 1.51 | H 1.59
L15: I 1.86 | R 2.24 | E 2.22 | W 2.95 | A 2.72 | V 2.06 | H 2.07 | F 1.61 | Q 2.95 | M 1.72 | N 2.33 | C 1.94 | Y 2.13 | K 2.47 | D 2.65 | P 2.57 | T 1.17 | S 2.41
Y6: E 2.3 | T 2.63 | H 2.25 | D 2.91 | M 2.15 | V 1.27 | L 2.85 | F 2.88 | Q 1.96 | R 1.84 | N 2.79 | A 2.85 | G 2.56 | K 2.05 | S 2.16 | C 1.84
N5: P 1.63 | F 1.03 | T 2.24 | Y 2.24 | I 2.23 | A 2.03 | Q 2.12 | D 1.71 | K 1.42 | H 1.9 | C 1.51
E11: Y 1.75 | T 1.67 | H 2.76 | A 1.57 | Q 2.49 | V 2.37 | G 1.55 | N 2 | D 2.39 | I 1.71 | L 2.11 | K 2.04
R12: T 2.88 | K 1.93 | Y 2.01 | G 1.77 | C 2.4 | Q 1.95 | S 2 | V 1.55 | E 2.77 | N 1.79 | D 2.32 | I 2.77 | F 1.55 | M 1.06 | H 2.65 | L 2.03
L19: S 3.25 | W 1.41 | I 2.52 | H 2.66 | R 2.18 | K 1.81 | T 2.31 | E 2.08 | G 1.87 | M 1.95 | P 2 | C 2.01 | F 2.68 | A 2.62 | V 1.79
Y22: R 1.9 | Q 1.7 | C 2.27 | D 3.06 | H 2.56 | P 2.29 | T 1.9 | A 1.82 | K 2.46 | W 2.4 | S 2.22

Variants of: B2
Assay: as above
Settings: c terminus: a fixed tail appended

Protein stability index: each site, then its substitutions
N23: Y 1.25 | V 2.96 | T 1.67 | W 2.79
L24: K 1.89 | N 1.85 | M 2.03 | F 1.61 | I 1.69 | P 2.98 | Y 2.7 | V 2.12 | R 1.7 | H 2.88 | G 2.99 | D 2.6 | W 2.4 | Q 2.26 | A 2.34 | S 2.47 | C 2.75 | E 2.46 | T 2.98
